Data: patent publication US7977317B2, “Compositions and methods for modulating blood-brain barrier transport” (Raptor Pharmaceutical Inc., priority 2001, dated 2011)

Assays:
BBCEC monolayers [1] = test: Accumulation of ligands in BBCEC monolayers; type: cell-based, bovine; settings: native proteins (FIG. 13c)
Protocol: (§1) FIG. 7 illustrates the results of experiments where the ligands p97, Lf and Tf were heated or not heated prior to the binding study. In all cases, binding experiments were conducted in the transwell apparatus as described previously, with the exception that binding was conducted at either 4° C. or at 37° C. For the 37° C. trial, a separate experiment was conducted where the ligand was boiled for 30 mins then rapidly cooled prior to administration on the transwell plates.
(§2) FIG. 13 illustrates the transcytosis and accumulation of p97 and transferrin in BBCEC monolayers. FIG. 13a, Transcytosis experiments were performed at 37° C. (solid bars) or 4° C. (white bars). [^125I]-p97 or bovine [^125I]-holo-transferrin (1 mg/ml) was added to the upper side of the cell-covered filter. At the end of the experiment, radiolabelled proteins were measured in the lower chamber of each well by TCA precipitation (n=4). Controls were also performed at 37° C. with denatured [^125I]-p97 or bovine [^125I]-holo-transferrin boiled for 30 min (grey bars) (n=2); FIG. 13b, Biospecific interaction analysis was performed with native or boiled p97 for the indicated times. MAb L235 (5 μg) was immobilized on a sensor chip (SM5) using standard procedures incorporating NHS, EDC and ethanolamine. Native and boiled p97 (5 to 30 min) diluted at 1 mg/ml in Ringer/Hepes was cooled and injected into the BIAcore. The surface plasmon resonance response obtained for native p97 and boiled p97 was plotted (in relative units (RU)) as a function of time; FIG. 13c, The accumulation of both proteins into BBEC cells were also measured. Briefly, after incubation at 37° C. (solid bars) or 4° C. (white bars) with either [^125I]-protein, cells were washed four times with cold PBS. Accumulation of both denatured proteins (grey bars) was also measured at 37° C. Filters were then removed, and the radioactivity associated with the cells was quantified (n=3).
as §1, with “In” for “FIG. 7 illustrates the results of experiments where the ligands p97, Lf and Tf were heated or not heated prior to the binding study. In”

BBCEC monolayers [2] = test: Transcytosis across BBCEC monolayers (in vitro BBB model); type: cell-based, bovine; settings: 200-fold molar excess of competitor, [125I]-p97 25 nM (FIG. 15a, 15b)
Description: FIG. 10 assesses the ability of several agents to interfere with p97 transyctosis. FIG. 10a, transcytosis of I125-P97 was compared in the presence of cold p97 (5 micromolar), Lf (5 micromolar), and Tf (5 micromolar). […] FIG. 10c, RAP, a known poly-peptide inhibitor of the LDL-Receptor family was applied to the cells (25 micrograms/ml).
FIG. 11 examines the accumulation and transcytosis of p97. FIG. 11a, of [^125I]-p97, [^125I]-BSA and [^125I]-holo-transferrin one hour after i.v. injection. The radioactivity in brain was compared between the three compounds. (n=3); FIG. 11b, Accumulation of p97 and transferrin into the mouse brain parenchyma. In situ brain perfusion was performed with human [^125I]-p97 or [^125I]-holo-transferrin at a final concentration of 10 nM via a catheter inserted in the right common carotid artery. The volume of distribution (VD) of [^125I]-proteins were obtained in the whole brain homogenate (white bars), in brain capillaries (solid bars) and in brain parenchyma (hatched bars) after isolation of the right hemisphere and capillary depletion. Results were obtained for p97 (n=10) and for holo-transferrin (n=6); FIG. 11c, Transcytosis of p97 across BBCEC monolayers. Transcytosis experiments were performed 37° C. (open circles) and 4° C. (closed circles) with BBCEC monolayers. [^125I]-p97 (1 mg/ml) was added to the upper side of the cell-covered filter. One representative experiment is shown (n=4); FIG. 11d, Preferential transport of p97 across the BBCEC monolayers. Apical-to-basal and basal-to-apical transport of [^125I]-p97 (25 nM) was measured for 2 hrs at 37° C. At the end of the experiment, [^125I]-p97 was assessed in the lower or upper chambers of each well by TCA precipitation (n=4).
as §2
FIG. 14 illustrates the stability of p97 and integrity of the BBCEC monolayers following p97 transcytosis. FIG. 14a, Transcytosis experiments were performed at 37° C. and 4° C. by adding p97 (1 mg/ml) to the upper compartment. At the end of the experiment, 50 μl from each lower chamber was used for SDS-polyacrylamide gel electrophoresis. After electrophoresis, the gels were stained with Coomassie Blue. A standard curve was also made with known amounts of recombinant p97 (0-2 μg); FIG. 14b. The gels were dried and scanned to quantify the amount of intact p97 that crossed the BBCEC monolayers at 37° C. and 4° C. (n=3); FIG. 14c, Effect of p97 on sucrose permeability of BBCE cell monolayers co-cultured with astrocytes. […]

B1: bovine holo-transferrin: bovine holo-transferrin (protein, UniProt Q29443 20-704, looked up)
Serotransferrin: DPERTVRWCTISTHEANKCASFRENVLRILESGPFVSCVKKTSHMDCIKAISNNEADAVTLDGGLVYEAGLKPNNLKPVVAEFHGTKDNPQTHYYAVAVVKKDTDFKLNELRGKKSCHTGLGRSAGWNIPMAKLYKELPDPQESIQRAAANFFSASCVPCADQSSFPKLCQLCAGKGTDKCACSNHEPYFGYSGAFKCLMEGAGDVAFVKHSTVFDNLPNPEDRKNYELLCGDNTRKSVDDYQECYLAMVPSHAVVARTVGGKEDVIWELLNHAQEHFGKDKPDNFQLFQSPHGKDLLFKDSADGFLKIPSKMDFELYLGYEYVTALQNLRESKPPDSSKDECMVKWCAIGHQERTKCDRWSGFSGGAIECETAENTEECIAKIMKGEADAMSLDGGYLYIAGKCGLVPVLAENYKTEGESCKNTPEKGYLAVAVVKTSDANINWNNLKDKKSCHTAVDRTAGWNIPMGLLYSKINNCKFDEFFSAGCAPGSPRNSSLCALCIGSEKGTGKECVPNSNERYYGYTGAFRCLVEKGDVAFVKDQTVIQNTDGNNNEAWAKNLKKENFEVLCKDGTRKPVTDAENCHLARGPNHAVVSRKDKATCVEKILNKQQDDFGKSVTDCTSNFCLFQSNSKDLLFRDDTKCLASIAKKTYDSYLGDDYVRAMTNLRQCSTSKLLEACTFHKP
modifications: iron-loaded (holo)
Accumulation in BBCE cells (BBCEC monolayers [1]): no significant accumulation | Reduction of apical-to-basal transport of [125I]-p97 (BBCEC monolayers [2]): had no impact
